Where no end group is shown, it is not given here.

The target of data set [1] is T1, protein kinase A catalytic subunit (Mus musculus, UniProt P05132). Kind of data set: Change in fluorescence after incubation with excess protein kinase A. The conditions noted are these: one hour at 30° C., 488 nm excitation, 511 nm emission; for % Change in fluorescence upon phosphorylation: more drastically altered N-terminal sites, excess PKA catalytic subunit; for % Change in fluorescence: excess protein kinase A catalytic subunit. It counts as biochemical. Here is the method: (§1) Numbers prior to the sequence indicate amino acid position in wild type GFP (SEQ ID NO:2) where phosphorylation motif starts. The relative rates of phosphorylation compare the rate of phosphorylation of the given phosphorylation motif with the endogenous protein kinase A phosphorylation motif in Aequorea GFP (HKFSV, SEQ ID NO:1) measured by incorporation of ^32P after incubation of the purified substrate and protein kinase A catalytic subunit in the presence of ^32P-labeled ATP using 3 micrograms of GFP, 5 micrograms protein kinase A catalytic subunit, for 10 minutes at 30° C. in standard phosphorylation buffer (20 mM MOPS, pH 6.5, 100 mM KCl, 100 micromolar ATP, 3 mM MgC2, 1 mM DTT and 100 microCi ^32P-labeled ATP. Reactions were terminated by blotting onto phosphocellulose paper and washing with 10% phosphoric acid. The percent change in fluorescence represents the increase in fluorescence (475 nm excitation, 510 nm emission) observed in each purified protein resulting from incubation with excess protein kinase A catalytic subunit for one hour at 30° C. using the same phosphorylation conditions as described above except that no ^32P labeled ATP was present and that after the reaction time was complete, samples were analyzed in a fluoromiter rather than blotted onto phosphocellulose paper.
(§2) Numbers prior to the sequence indicate amino acid position in the wild type GFP where the phosphorylation motif starts. The relative rates of phosphorylation compare the rate of phosphorylation of the given phosphorylation motif with the endogenous protein kinase A phosphorylation motif in Aequorea GFP (HKFSV) measured by incorporation of ^32P after incubation of the purified substrate and protein kinase A catalytic subunit in the presence of ^32P-labeled ATP using the standard protocols described above. The percentage change in fluorescence represents the change in fluorescence (488 nm excitation, 511 nm emission) observed in each purified protein as a result of incubation with excess protein kinase A catalytic subunit for one hour at 30° C. using phosphorylation conditions described above. […] To improve the effect of phosphorylation on fluorescence, amino acids around the phosphorylation site were mutated to create an optimal phosphorylation sequence even if it disordered the existing local tertiary structure. Such disruption was predicted and found to decrease the basal fluorescence of these constructs in their non-phosphorylated state (Table VI).
Numbers prior to the sequence indicate amino acid position in wild type GFP where the phosphorylation site starts. Negative numbers indicate extensions onto the wild-type N-terminus. The percent change in fluorescence represents the change in fluorescence (488 nm excitation, 511 nm emission) observed in each purified protein resulting from incubation with excess protein kinase A catalytic subunit for one hour at 30° C. using standard phosphorylation conditions described earlier.

The target in data set [2] is T1, protein kinase A catalytic subunit. Nature of the data set: Relative rate of phosphorylation by protein kinase A, ^32P incorporation. Type of data set: biochemical. Particulars: relative to endogenous PKA motif HKFSV; sites inserted at the N-terminus of S65T GFP. Here is the method:
as §1, §2

Data set [3] can be described thus: Fluorescent properties of mutants of Aequorea green fluorescent protein (Table I). It counts as physicochemical.
The subject of data set [4] is activated recombinant MAP kinase. Nature of the data set: Phosphorylation of GFP Erk sensors by MAP kinase, ^32P incorporation. Type of data set: biochemical. Particulars: for ^32P-Incorporation (CPM): 10 μM substrate, 100 ng MAP kinase, 30 minutes at 30° C., mean ± standard deviation of triplicates. The text has this:
Experiments were terminated and samples processed as described previously in subsection D.4. Results presented in Table X represent means of triplicate determinations ±standard deviations of ^32P-incorporation in washed pellets as described earlier.

The target in a further data set is Erk-1 kinase (Homo sapiens, UniProt P27361). Nature of the data set: Fluorescence change of Erk substrates after phosphorylation and acetate quench. Type of data set: biochemical. The conditions noted are these: 2 μM GFP, 1 μg Erk-1 kinase, 1 hour at 30° C.; 3 hours in acetate quenching buffer pH 5.0. Here is the method:
These experiments were performed by incubating the GFP sample (2 μM) with Erk-1 kinase (1 μg) for 1 hour at 30° C. in assay buffer (20 mM MOPS, pH 7.2, 25 mM beta-glycerol phosphate, 5 mM EGTA, 1 mM DTT, 1 mM ATP, 20 mM MgCl2). Reactions were quenched by the addition of acetate quenching buffer (100 μL of 100 mM Acetate pH 5.0, 100 mM NaCl, 20 mM beta-Glycerol phosphate). Fluorescence changes were measured after 3 hours of incubation in acetate quenching buffer. Results represent the means of triplicate determinations.

Sequence of Erk-1 kinase (P27361 whole entry): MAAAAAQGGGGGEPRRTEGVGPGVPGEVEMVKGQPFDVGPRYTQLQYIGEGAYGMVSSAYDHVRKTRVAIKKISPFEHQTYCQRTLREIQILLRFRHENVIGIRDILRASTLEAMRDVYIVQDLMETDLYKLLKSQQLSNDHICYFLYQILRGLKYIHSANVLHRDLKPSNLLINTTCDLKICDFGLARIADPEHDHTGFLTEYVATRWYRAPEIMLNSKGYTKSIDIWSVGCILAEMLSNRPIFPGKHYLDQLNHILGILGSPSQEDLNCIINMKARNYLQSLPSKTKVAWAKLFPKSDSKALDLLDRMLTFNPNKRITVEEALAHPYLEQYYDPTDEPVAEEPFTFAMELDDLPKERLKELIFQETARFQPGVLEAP

On to “1IMRRRRSI1: S65T GFP with N-terminal phosphorylation site MRRRRSII (not fully specified (C-terminus); printed as 1IMRRRRSI1)”, for which the “% Change in fluorescence upon phosphorylation” value in data set [1] is 70%; in data set [1] (listed as 1MRRRRSII) it was “about 70%”.
As to “1MRDSCLF: S65T GFP with N-terminal phosphorylation site MRDSCLF (not fully specified (C-terminus); printed as 1MRDSCLF)”, the “Relative rates of phosphorylation” value in data set [2] was found to be 3.7. For the same molecule, in data set [1], the “% Change in fluorescence” value was found to be 17%.
The matching figures for “1MRKGSCLF: S65T GFP with N-terminal phosphorylation site MRKGSCLF (not fully specified (C-terminus); printed as 1MRKGSCLF)”: 5.1 and 5.7%.
Regarding “1MRKGSLLF: S65T GFP with N-terminal phosphorylation site MRKGSLLF (not fully specified (C-terminus); printed as 1MRKGSLLF)”, the “Relative rates of phosphorylation” value in data set [2] worked out at 1.6. The “% Change in fluorescence” value in data set [1] was determined as 8.0%.
For “1MRRESLLF: S65T GFP with N-terminal phosphorylation site MRRESLLF (not fully specified (C-terminus); printed as 1MRRESLLF)”, in that order: 3.0 and 6.0%.
As to “1MSKRRDSL: GFP with N-terminal phosphorylation site MSKRRDSL; 7% of wild type fluorescence (not fully specified (C-terminus); printed as 1MSKRRDSL)”, the “Relative rates of phosphorylation” value in data set [2] worked out at 5.5. Moreover, the “% Change in fluorescence” value in data set [1] worked out at 5.1%.
With “1MSRRDSCF: S65T GFP with N-terminal phosphorylation site MSRRDSCF (not fully specified (C-terminus); printed as 1MSRRDSCF)”, in data set [2], the “Relative rates of phosphorylation” value was 2.1. In addition, the “% Change in fluorescence” value in data set [1] stood at 25%.
Consider `O=C(Nc1ccccc1-c1ccc(Cl)cc1)c1cccnc1Cl` [Emerald], for which, in data set [3], the “Emission Max” value is given as 508 nm and the “Excitation Max” value was 487 nm.
“Erk-1: GFP mutant K8 with Erk kinase motif Met Val Glu Pro Leu Thr Pro Ser Phe (MVEPLTPSF; not fully specified; printed as Met Val Glu Pro Leu Thr Pro Ser Phe)”: the “^32P-Incorporation (CPM)” value in data set [4] was determined as 1579 ± 282 CPM.
The same measure, in the same setting: in the case of “Erk-4: GFP mutant K8 with Erk kinase motif Met Thr Gly Pro Leu Ser Pro Gly Phe (MTGPLSPGF; not fully specified; printed as Met Thr Gly Pro Leu Ser Pro Gly Phe)” it was 1982 ± 260 CPM; in that of “Erk-5: GFP mutant K8 with Erk kinase motif Met Thr Gly Pro Leu Ser Pro Gly Tyr (MTGPLSPGY; not fully specified; printed as Met Thr Gly Pro Leu Ser Pro Gly Tyr)”, 6455 ± 558 CPM.
“Erk-6: GFP mutant K8 with Erk kinase motif Met Thr Gly Pro Leu Ser Pro Gly Leu (MTGPLSPGL; not fully specified; printed as Met Thr Gly Pro Leu Ser Pro Gly Leu)”: the “Fold Increase in Fluorescence after Phosphorylation” value in the data set with Erk-1 kinase worked out at 1.20 fold. The “^32P-Incorporation (CPM)” value in data set [4] is 22498 ± 381 CPM.
Regarding “Erk-7: GFP mutant K8 with Erk kinase motif Met Thr Gly Pro Leu Ser Pro Gly Pro (MTGPLSPGP; not fully specified; printed as Met Thr Gly Pro Leu Ser Pro Gly Pro)”, the “Fold Increase in Fluorescence after Phosphorylation” value with Erk-1 kinase was found to be 1.05 fold. The “^32P-Incorporation (CPM)” value in data set [4] turned out to be 25502 ± 2077 CPM. For the same molecule, the Km in data set [4] (kinetic analysis) came out at 15 µM.
“Wild type: wild-type Aequorea green fluorescent protein, SEQ ID NO:2”: in data set [3], the “Emission Max” value is on record as 508 nm, the “Excitation Max” value is reported as 395 nm, the “Extinction Coefficient” value is 21,000 M − 1 cm − 1 and the “Quantum Yield” value is recorded as 0.77.
With “−1MRRRRSIII: S65T GFP with N-terminal phosphorylation site MRRRRSIII, N-terminus extended by one (not fully specified (C-terminus); printed as −1MRRRRSIII)”, the “% Change in fluorescence upon phosphorylation” value in data set [1] is recorded as 43%; in data set [1] (listed as MRRRRSIII), “about 70%”.
For the molecule “−2MRRRRSIIIF: S65T GFP with N-terminal phosphorylation site MRRRRSIIIF, N-terminus extended by two (not fully specified (C-terminus); printed as −2MRRRRSIIIF)”, in data set [1], the “% Change in fluorescence upon phosphorylation” value amounted to 15%.

(Values after patent publication US20080166749A1, “Fluorescent Protein Sensors of Post-Translational Modifications” (INVITROGEN CORPORATION, priority 1998, published 2008).)
